In IntAct's records for PubMed 12074588:

Biological target: nck1_human NCK1 (UniProt P16333)

Substance	effect of a mutation on the interaction
BDNF/NT-3 growth factors receptor (Rattus norvegicus (Rat)), Q63604 K571F	disrupting interaction strength
BDNF/NT-3 growth factors receptor (Rattus norvegicus (Rat)), Q63604 Y515F	with no effect
BDNF/NT-3 growth factors receptor (Rattus norvegicus (Rat)), Q63604 Y701F	with no effect
BDNF/NT-3 growth factors receptor (Rattus norvegicus (Rat)), Q63604 Y705F	disrupting interaction strength
BDNF/NT-3 growth factors receptor (Rattus norvegicus (Rat)), Q63604 Y706F	disrupting interaction strength
BDNF/NT-3 growth factors receptor (Rattus norvegicus (Rat)), Q63604 Y726F	with no effect
BDNF/NT-3 growth factors receptor (Rattus norvegicus (Rat)), Q63604 Y782F	disrupting interaction strength
BDNF/NT-3 growth factors receptor (Rattus norvegicus (Rat)), Q63604 Y816F	with no effect
